Our source for the Km values is article PMC3699834.

Substrate in this data set: N
Put plainly: cells, lysate or membranes. The note with it: NH4Cl; oocytes clamped at −120 mV; Michaelis–Menten fit.

B1: AMT1;3 (Arabidopsis thaliana) (protein)
chain: MSGAITCSAADLATLLGPNATAAADYICGQLGTVNNKFTDAAFAIDNTYLLFSAYLVFAMQLGFAMLCAGSVRAKNTMNIMLTNVLDAAAGGLFYYLFGYAFAFGGSSEGFIGRHNFALRDFPTPTADYSFFLYQWAFAIAAAGITSGSIAERTQFVAYLIYSSFLTGFVYPVVSHWFWSPDGWASPFRSADDRLFSTGAIDFAGSGVVHMVGGIAGLWGALIEGPRRGRFEKGGRAIALRGHSASLVVLGTFLLWFGWYGFNPGSFTKILVPYNSGSNYGQWSGIGRTAVNTTLSGCTAALTTLFGKRLLSGHWNVTDVCNGLLGGFAAITAGCSVVEPWAAIVCGFMASVVLIGCNKLAELVQYDDPLEAAQLHGGCGAWGLIFVGLFAKEKYLNEVYGATPGRPYGLFMGGGGKLLGAQLVQILVIVGWVSATMGTLFFILKRLNLLRISEQHEMQGMDMTRHGGFAYIYHDNDDESHRVDPGSPFPRSATPPRV
In general, Km refers to the concentration of substrate that gives half-maximal velocity. For the protein B1, the Km came to 55 ± 15 µM.
